Measurements from the supplement of paper PMC9170038.

Tested on: MS2 coat protein
Test: apparent KD of MS2 coat protein; designed switch direction (-1 OFF switch, 1 ON switch): -1; higher = weaker reporter binding
In short: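 RNA switches sharing common flanks were transcribed by stalled E. coli RNA polymerase on Illumina chips. A doubling series of SNAP-549-labelled MS2 coat protein, from 0.7 or 1.5 nM to 3 µM, was applied in Tris-HCl pH 7.5 buffer with KCl, MgCl2, BSA, DTT, tRNA and Tween-20. Each step lasted 0.8–1.5 h at the bottom of the series and 10–20 min at the top. Normalised cluster fluorescence was curve-fitted, giving apparent KD as the per-design median over clusters.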

[1] = input ligand: microRNA oligo, concentration not stated
[2] = Eterna round: R95, input ligand: FMN 200 uM
[3] = Eterna round: R95, input ligand: microRNA oligo, concentration not stated
[4] = Eterna round: R95, input ligand: none

Sequence	apparent KD of MS2 coat protein [1] [nM]	apparent KD of MS2 coat protein (input ligand: FMN 200 uM) [nM]	apparent KD of MS2 coat protein (input ligand: none) [nM]	apparent KD of MS2 coat protein [2] [nM]	apparent KD of MS2 coat protein [3] [nM]	apparent KD of MS2 coat protein [4] [nM]
UAUAUAUAGUAAGGAUAUGUAAUAAUUUUAUAAACAGAAGGUACUGACAUGAGGAUCACCCAUGUUUUAGUGUGGGCAUGUAGA [JMF's solution 30] (Eterna round: R96, puzzle: Exclusion NG 1)	73.2					
CGUCCACUUGAGGAUCACCCAAGUUAGGAUAUCUCCCAGCUCGCAUGUGCGGUUGGUCAGAGAAGGAACCAGGG [Ravereed] (Eterna round: R97, puzzle: Exclusion 1)		49.5	29			
CCAUAUAACUGAGGAUAUACUCACCACUAACAUGUAGAAGGCAGACAUGAGGAUCACCCAUGUGAUUUCUCAAUAUUAUACAUC [Prohibition 75 - Jieux - Exclusion NG 1] (Eterna round: R96, puzzle: Exclusion NG 1)	500					
CGGCGACAUGAGGAUCACCCAUGUGAGGAUAUGACGGGAAAAGCGUGAGCAGUUUGUAUCAGAAGGCGGGUAGG [salish99_ex1_r4_080] (Eterna round: R97, puzzle: Exclusion 1)		37.2	33.6			
CAGUACUGAGGAUAUACAUGAGGAUCACCCAUGUGGUCCAGCUAGGAAACUAGCAAAAGUAGAAGGCAGUACUG [salish99_ex3_r3_083] (puzzle: Exclusion 3)				12.5	71.5	218
AAAAAACAAGGAUAUACGAAGGAUGGUUAUCUUAAUUUUUGACAUGAGGAUCACCCAUGUAGAAGGUGUUAAAA [JR_Exclusion2_Sub010] (puzzle: Exclusion 2)					34.8	
ACAUCACAGCUAGGAUAUAGAUGACAUGAGGAUCACCCAUGUUAUCCCAUGUUGACGAAAACCGACUAGAAGGAGCUACAGAUG [Ex NG2 #6] (Eterna round: R96, puzzle: Exclusion NG 2)	40.2	101	63.7			
GACUGCCGAGGAUAUACAUGAGGAUCACCCAUGUGCUUCAGCAUUUUUUAAUGCAUGGGUAGAAGGCGGUAGUU [LRO-Excl3-14] (puzzle: Exclusion 3)					31.5	
AGUACUAACACGGAAGUGUUAGUACAAUAAGCUUGUGAAACAUGAGGAUCACCCAUGUCCUCAUAAGCUCGUCUUAU [salish99_TOv2_r3_026] (puzzle: Sensor v3, turn-off variant 2)				11.1	315	18.1
GGUGCGUAUGUGAGGAUAUGCUGGUCCUUGGUUCAGCAGAAGGCACAUGAGGAUCACCCAUGUGGUGUCGUACC [salish99_Bmod_Ex4_025] (puzzle: Brourd's mod of Exclusion 4)					188	
CACCGUUAGUGAGGAUAUAUUACAUGAGGAUCACCCAUGUAAUAAAUGAGAAUUUCGGAUGUAUGAUAGAAGGCACAAAUCGGC [Ostricism 52 - Jieux - Exclusion NG 2] (Eterna round: R96, puzzle: Exclusion NG 2)	11.2	11.2	13.1			
GGUCGGCGAGGAUAUACAUGAGGAUCACCCAUGUGAUAGAGUGCACGAAAACGUGUACGUAGAAGGCGCUGACG [Mat - Exclusion 3 - Mod of JL D96] (puzzle: Exclusion 3)				29.5	11	9.24
UCUCGAAGGCAAGGAUAUCCUACAUUGUUCUGGCCCGGGCAUGCUACAUGAGGAUCACCCAUGUGGGAGAAGGUGCGCCACGGC [Design 29] (Eterna round: R96, puzzle: Exclusion NG 2)	32.9	31.6	43.1			
CAUGGAACGUAGGAUAUCUCGCAGCCCGACUGCAGAGAAGGACGUACAUGAGGAUCACCCAUGUAUGAUCCAAA [Vexeoren] (puzzle: Exclusion 6)				29.2	18.1	23.3
CCGCUCCGUGUAGGAUAUCGGUGUACCCUGCGCCGAGAAGGACAUGAGGAUCACCCAUGUAUGUUAUUAUCACGCGUGGCGCAC [Design 73] (Eterna round: R96, puzzle: Exclusion NG 1)	18.9	37.7	37.7			
ACAAGCAGAGAGUAAAUGGACAUGAGGAUCACCCAUGUGAGUCCGAAGAGAUAAGAUAUAUUGUCGGCUCGUCUUAU [AK-miRNA-r3-21] (Eterna round: R97, puzzle: Sensor, turn-off variant 1)		105	105			
ACAUGUCAUUGAGGAUAUCGCACACAUGAGGAUCACCCAUGUAAACGGAUGCUCUUACGUGGGUUCGAGAAGGCGAUGUACAUU [Ex NG2 #95] (Eterna round: R96, puzzle: Exclusion NG 2)	112	458	142			

Sequence	apparent KD of MS2 coat protein [1] [nM]	apparent KD of MS2 coat protein (input ligand: FMN 200 uM) [nM]	apparent KD of MS2 coat protein (input ligand: none) [nM]	apparent KD of MS2 coat protein [2] [nM]	apparent KD of MS2 coat protein [3] [nM]	apparent KD of MS2 coat protein [4] [nM]
GAUUAUGCGAGCUUUAGGGACAUGAGGAUCACCCAUGUUCGUCUUAUUGGUCUAGGUACACUAACAUACCUAAAUCU [JMF 19] (puzzle: Sensor v3, turn-off variant 1)				20.4	38.9	21.3
UUUGAAUAGGUAGGAUAUACUUUCAAUUUUCUUUUCCUUACAUGAGGAUCACCCAUGUUUACAUUGUAGAAGGACCUCAUUGAU [JR_ExcNG2_Sub048] (Eterna round: R96, puzzle: Exclusion NG 2)	193					
AUCGUGCAGCUUUGCUGUACGAGUACAUGAGGAUCACCCAUGUAGGAUAUGGUACGCAAAGCGUGCUAGAAGGAUAUGAGAUUA [Mat - Exclusion NG 3 - Mod of JL - D96] (Eterna round: R96, puzzle: Exclusion NG 3)	21.5	24.2	28.8			
ACCAGUGGAGGAUAUACAUGAGGAUCACCCAUGUGUUGAAUAGGUGGAGAACCACAAAGUAGAAGGCCACUGGA [jl-ex3-4.79 jandersonlee automod] (Eterna round: R97, puzzle: Exclusion 3)		1000	76.6			
UUAUCCCAUGUGAGGAUAUUAUUUUAAAGAUGCAAUGAGAAGGUACAUGAGGAUCACCCAUGUCCGCGAAAUAU [Eternabot (L2) Solution 57] (Eterna round: R97, puzzle: Brourd's mod of Exclusion 4)		15.4	15.4			
ACAUGAGGAUCACCCAUGUCUGGCUGGUCUGCUCCGGUUGUUGAGGAUAUAGUUCGGUGUUCGCGCUAGAAGGUGAGGGCUGGC [Aenatbe mod 38] (Eterna round: R96, puzzle: Exclusion NG 3)	32.1	34.4	39			
CUUUUGUGAGGAUAUCAGUAGUAAUACAAUAGUAUUACUACUGAGAAGGCACAUGAGGAUCACCCAUGUUCCUC [Ex4 344 Omei mod 0] (puzzle: Exclusion 4)					40.5	
GGUCAAGAACAGAUCCGCGCUGUCCUUGACCGCUCAUUUACAUGAGGAUCACCCAUGUUUUUUGCUUGUCUUGUUAC [Tixegeis] (puzzle: Sensor v3, turn-off variant 2)				17.4	96.7	16.5
GCCUCACAUGAGGAUCACCCAUGUCAGGAUAUAGGAGACGGCAGAAAUCCUGCCAUCGCUAGAAGGGACUGGCA [Tirebi] (Eterna round: R96, puzzle: Exclusion 1)	50.6	138	67			
AGCUGUGGCCGAGGAUAUCUGAACCUUCAAACCGAAAUAUAAUCGGACAUGAGGAUCACCCAUGUAGAGAAGGCGGUCUCAGCA [Eli eng2 - 060] (Eterna round: R96, puzzle: Exclusion NG 2)	9.95					
ACAUGAGGAUCACCCAUGUGAAAACAAUGGCUGACUUUGAGACAGGAUAUAGGUGCAUAUCAAACCUAGAAGGGUCAUUACUGG [Deportation 93 - Jieux - Exclusion NG 3] (Eterna round: R96, puzzle: Exclusion NG 3)	31.6	43.5	38.2			
CAUACUAAAGUCAGGAUAUGCGGUCGAAUACGGGUGUAGAAGGGACAUGAGGAUCACCCAUGUAGAUAGUAAAG [EX-4 Malc #18] (puzzle: Brourd's mod of Exclusion 4)				93.1	90.2	129
GCAAGCUUUUGCUCGUCUUACAUGAGGAUCACCCAUGUCGGGUUCGGUCGUCGCGGCUGGGCUUGCCGGGCGCCGGG [-28.7, -55.8 kcal, A 10%] (Eterna round: R97, puzzle: Sensor, turn-off variant 1)		215	244			
UCACCUGGGUCAGGAUAUAAAGGGUCAGGAAGUUUAGAAGGGACUUAGGACAUGAGGAUCACCCAUGUUGAGAACUCGUUUGUA [Eternabot solution 25] (Eterna round: R96, puzzle: Exclusion NG 1)	27.5	46.2	36.7			
AAACUGAGGCUUUGCUUUAGUCGUACAUGAGGAUCACCCAUGUAGGAUAUGGUAGGCUUUGCUUACCAGAAGGACAGAGUGAUC [JL EXNG3 1.20] (Eterna round: R96, puzzle: Exclusion NG 3)	404	80.5	279			
GAAAGGUGAGGAUAUACACUGCGGUGUAGUCCUCAUAAAAGACAUGAGGAUCACCCAUGUAGAAGGCACAUAAA [Rirereis] (puzzle: Exclusion 2)				96	32.8	27.5
